Measured values: US8409836B2, “Treatment of cellulosic material and enzymes useful therein” (Roal Oy, priority 2005, dated 2013)
One block for each molecule: values may come before it.

Tests used:
[1] = Hydrolysis with endoglucanase preparations, corn stover; type: biochemical; conditions: 48 h, 45° C., pH 5.0
Procedure: (§1) The preparations containing the endoglucanases were compared in hydrolysis studies mixed with the purified CBH/Cel7 and CBH/Cel6 enzymes on several pre-treated substrates. Culture filtrates of T. reesei, containing different cloned endoglucanase enzymes were obtained as described in Example 19. The enzymes were enriched by removing thermolabile proteins from the mixtures by a heat treatment (60° C., 2 h, pH 5) and the supernatant was used for the hydrolysis studies. In addition, pure T. reesei cellulases (purified as described by Suurnäkki et al., 2000) were used in the enzyme mixtures. The endoglucanases used in the experiment were:
Steam exploded corn stover fibre (steam pre-treatment at 210° C. for 5 min), dry matter 31.0% (SECS).
(§2) The endoglucanases to be studied (dosage 840 nkat/g dry matter, based on endoglucanase activity against HEC according to IUPAC, 1987) were used either with cellobiohydrolases of T. reesei (CBHI/Cel7A, 8.1 mg/g d.m. and CBHII/Cel6A, 2.0 mg/g d.m.) or with Thermoascus aurantiacus Cel7A with genetically attached CBD of T. reesei (10.1 mg/g d.m.). Purified (Suurnäkki et al., 2000) EGI (Cel7B) and EGII (Cel5A) of T. reesei were also included in the experiments for comparison. All mixtures were supplemented with additional β-glucosidase from Novozym 188 (to make the total β-glucosidase dosage 560 nkat/g d.w., the relatively high dosage was used to compensate the differences in the background activities of the different EG preparations). Triplicate tubes were incubated in mixing at 45° C. for 48 h and reference samples with inactivated enzymes and corresponding substrates were prepared. The release of hydrolysis products was measured as reducing sugars with DNS method using glucose as standard (Table 31).

[2] = Hydrolysis with endoglucanase preparations, spruce; type: biochemical; conditions: 48 h, 45° C., pH 5.0
Procedure: as §1
Washed steam pre-treated spruce fibre (impregnation with 3% SO2 for 20 min, followed by steam pre-treatment at 215° C. for 5 min), dry matter 25.9% (SPRUCE).
as §2

[3] = Isoelectric focusing (PhastSystem), pI of purified protein; type: physicochemical; conditions: IEF gel
Procedure: The sample was dissolved in water and applied to a Superdex 75 HR 10/30 gel filtration column equilibrated with 20 mM sodium phosphate pH 6.0, containing 0.15 M NaCl. Fractions were collected and those containing endoglucanase activity were combined. The protein eluate was judged to be pure by SDS-polyacrylamide gel electrophoresis and the molecular mass was evaluated on the basis of molecular mass standards (prestained SDS-PAGE standards, Broad Range, Bio-Rad) to be 54 kDa. The pI of the purified protein, designated as Ct EG—54 was determined with PhastSystem (Pharmacia) to be ca 5.5.
The sample was applied to a Sephacryl S-100 HR 26/60 gel filtration column equilibrated with 50 mM sodium acetate buffer pH 5.0, containing 0.05 M NaCl. The protein fraction containing endoglucanase activity was eluted from the column with a retention volume corresponding to a molecular weight of 16 kDa. Collected fractions were combined, concentrated and gel filtration was repeated. The protein eluate was judged to be pure by SDS-polyacryl amide gel electrophoresis and the molecular weight was evaluated to be 28 kDa. The pI of the purified protein, designated as Ta EG—28, was determined in an IEF gel (PhastSystem, Pharmacia) to be about 3.5. The specific activity of Ta EG—28 at 50° C. was determined to be 4290 nkat/mg (procedure of IUPAC 1987, using CMC as substrate).
The active material from the anion exchange chromatography was applied to a Sephacryl S-300 HR 26/60 column equilibrated with 20 mM sodium phosphate pH 6.5, containing 0.15 M NaCl. The protein with β-glucosidase activity was eluted with a retention volume corresponding to a molecular weight of 243 kDa. The protein was judged to be pure by SDS-polyacrylamide gel electrophoresis and the molecular weight was evaluated to be 101 kDa. The pI of the purified protein, designated as At βG—101, was determined in an IEF gel (PhastSystem, Pharmacia) to be in the area of 5.6-4.9. The specific activity of At βG—101 at 50° C. was determined to be 1100 nkat/mg (using 4-nitrophenyl-β-D-glucopyranoside as substrate, Bailey and Linko, 1990).
The active material from the cation exchange chromatography was applied to a Sephacryl S-300 HR 26/60 column equilibrated with 20 mM sodium phosphate pH 7.0, containing 0.15 M NaCl. The protein with β-glucosidase activity was eluted with a retention volume corresponding to a molecular weight of 294 kDa. […] The protein was judged to be pure by SDS-polyacrylamide gel electrophoresis and the molecular weight was evaluated to be 81 kDa, representing most likely the monomeric form of the protein. […] The specific activity of the purified protein, designated as Ta βG—81, at 50° C. was determined to be 600 nkat/mg using 4-nitrophenyl-β-D-glucopyranoside as substrate (Bailey and Linko, 1990). […]

[4] = Hydrolysis with CBH enzyme mixtures, willow; type: biochemical; conditions: additional enzymes EGII, bG, 48 h, 45° C., pH 5.0
Procedure: (§3) The performance of the purified recombinant cellobiohydrolases was evaluated in the hydrolysis studies with purified T. reesei enzymes. Hydrolysis was carried out with controlled mixtures of purified enzymes on several pre-treated substrates. […] In addition, pure T. reesei cellulases (purified as described by Suurnäkki et al., 2000) were used in the enzyme mixtures. The cellobiohydrolases used in the experiment were:
(§4) Each CBH/Cel7 to be tested (dosage 14.5 mg/g dry matter of substrate) was used either together with EGII/Cel5A of T. reesei (3.6 mg/g) or with a mixture containing T. reesei EGI/Cel7B (1.8 mg/g), EGII/Cel5A (1.8 mg/g), xylanase pI 9 (Tenkanen et al. 1992) (5000 nkat/g) and acetyl xylan esterase (AXE) (Sundberg and Poutanen, 1991) (250 nkat/g). All mixtures were supplemented with additional β-glucosidase from a commercial enzyme preparation Novozym 188 (176 nkat/g d.w.). Triplicate tubes containing the enzyme mixture and 10 mg (dry matter)/ml of the substrate suspended in 0.05 M sodium acetate were incubated in mixing by magnetic stirring at 45° C. for 48 h. Reference samples with inactivated enzymes and corresponding substrates were also prepared. The release of hydrolysis products was measured as reducing sugars with DNS method using glucose as standard (Table 30).
Washed steam pre-treated willow fibre (pre-treatment for 14 min at 210° C.), dry matter 23.0% (WILLOW).

[5] = Hydrolysis with CBH enzyme mixtures, Avicel; type: biochemical; conditions: additional enzymes EGII, bG; 48 h, 45° C., pH 5.0
Procedure: as §3, §4
Crystalline cellulose (Avicel)

[6] = Hydrolysis with CBH enzyme mixtures, corn stover; type: biochemical; conditions: additional enzymes EGII, bG, 48 h, 45° C., pH 5.0
Procedure: as §3, §4
Washed wet oxidized corn stover fibre (WOCS).

[7] = Hydrolysis with CBH enzyme mixtures, spruce; type: biochemical; conditions: additional enzymes EGII, bG; 48 h, 45° C., pH 5.0
Procedure: as §3, §4
Washed steam pre-treated spruce fibre (impregnation with 3% w/w SO2 for 20 min, followed by steam pre-treatment at 215° C. for 5 min), dry matter 25.9% (SPRUCE).

[8] = with CBHI and CBHII of T. reesei
[9] = with T. aurantiacus Cel7A + Tr CBD

B1: EGII: endoglucanase II (Cel5A) of T. reesei, reference enzyme (protein, UniProt P07982 22-418, looked up)
Endoglucanase EG-II: QQTVWGQCGGIGWSGPTNCAPGSACSTLNPYYAQCIPGATTITTSTRPPSGPTTTTRATSTSSSTPPTSSGVRFAGVNIAGFDFGCTTDGTCVTSKVYPPLKNFTGSNNYPDGIGQMQHFVNEDGMTIFRLPVGWQYLVNNNLGGNLDSTSISKYDQLVQGCLSLGAYCIVDIHNYARWNGGIIGQGGPTNAQFTSLWSQLASKYASQSRVWFGIMNEPHDVNINTWAATVQEVVTAIRNAGATSQFISLPGNDWQSAGAFISDGSAAALSQVTNPDGSTTNLIFDVHKYLDSDNSGTHAECTTNNIDGAFSPLATWLRQNNRQAILTETGGGNVQSCIQDMCQQIQYLNQNSDVYLGYVGWGAGSFDSTYVLTETPTSSGNSWTDTSLVSSCLARK
Hydrolysis products as reducing sugars, SECS [1, 8]: 3.5 mg/mL | Hydrolysis products as reducing sugars, SPRUCE [2, 8]: 3.8 mg/mL | Hydrolysis products as reducing sugars, SPRUCE [2, 9]: 3.2 mg/mL

B2: Ct EG_54: endoglucanase of Chaetomium thermophilum ALKO4261, gene Ct cel7B, amino acid SEQ ID NO: 16 (protein)
chain: MTRKFALVPLLLGLASAQKPGNTPEVHPKITTYRCSHRQGCRPETNYIVLDSLTHPVHQLNSNANCGDWGNPPPRSVCPDVETCAQNCIMEGIQDYSTYGVTTSGSSLRLKQIHQGRVTSPRVYLLDKTEQQYEMMRLTGFEFTFDVDTTKLPCGMNAALYLSEMDATGARSRLNPGGAYYGTGYCDAQCFVTPFINGIGNIEGKGSCCNEMDIWEANSRSQSIAPHPCNKQGLYMCSGQECEFDGVCDEWGCTWNPYKVNVTDYYGRGPQFKVDTTRPFTVITQFPADQNGKLTSIHRMYVQDGKLIEAHTVNLPGYPQVNALNDDFCRATGAATKYLELGATAGMGEALRRGMVLAMSIWWDESGFMNWLDSGESGPCNPNEGNPQNIRQIEPEPEVTYSNLRWGEIGSTYKHNLKGGWTGRN
pI of the purified protein [3]: ~5.5

The next lines start with the values.

Hydrolysis products as reducing sugars, WILLOW ([4]; EGI, XYL, AXE): 5.6 mg/mL | Hydrolysis products as reducing sugars, WILLOW [4]: 3.7 mg/mL | Hydrolysis products as reducing sugars, Avicel [5]: 4.9 mg/mL | Hydrolysis products as reducing sugars, WOCS ([6]; EGI, XYL, AXE): 7.2 mg/mL | Hydrolysis products as reducing sugars, WOCS [6]: 4.6 mg/mL | Hydrolysis products as reducing sugars, SPRUCE [7]: 3.7 mg/mL
B3: Ta Cel7A + Ct CBD: Thermoascus aurantiacus Cel7A fused to linker and CBD of Chaetomium thermophilum Cel7A, SEQ ID NO: 30 (protein)
chain: MYQRALLFSFFLAAARAQQAGTVTAENHPSLTWQQCSSGGSCTTQNGKVVIDANWRWVHTTSGYTNCYTGNTWDTSICPDDVTCAQNCALDGADYSGTYGVTTSGNALRLNFVTQSSGKNIGSRLYLLQDDTTYQIFKLLGQEFTFDVDVSNLPCGLNGALYFVAMDADGGLSKYPGNKAGAKYGTGYCDSQCPRDLKFINGQANVEGWQPSANDPNAGVGNHGSCCAEMDVWEANSISTAVTPHPCDTPGQTMCQGDDCGGTYSSTRYAGTCDPDGCDFNPYRQGNHSFYGPGQIVDTSSKFTVVTQFITDDGTPSGTLTEIKRFYVQNGKVIPQSESTISGVTGNSITTEYCTAQKAAFGDNTGFFTHGGLQKISQALAQGMVLVMSLWDDHAANMLWLDSTYPTDADPDTPGVARGTCPTTSGVPADVESQYPNSYVIYSNIKVGPIGSTVPGLDGSNPGNPTTTVVPPASTSTSRPTSSTSSPVSTPTGQPGGCTTQKWGQCGGIGYTGCTNCVAGTTCTQLNPWYSQCL

Hydrolysis products as reducing sugars, SECS [1, 8]: 4.6 mg/mL | Hydrolysis products as reducing sugars, SECS [1, 9]: 4.2 mg/mL | Hydrolysis products as reducing sugars, SPRUCE [2, 8]: 3.5 mg/mL
B4: EGI: endoglucanase I (Cel7B) of T. reesei, reference enzyme (protein, UniProt P07981 23-459, looked up)
Endoglucanase EG-1: QQPGTSTPEVHPKLTTYKCTKSGGCVAQDTSVVLDWNYRWMHDANYNSCTVNGGVNTTLCPDEATCGKNCFIEGVDYAASGVTTSGSSLTMNQYMPSSSGGYSSVSPRLYLLDSDGEYVMLKLNGQELSFDVDLSALPCGENGSLYLSQMDENGGANQYNTAGANYGSGYCDAQCPVQTWRNGTLNTSHQGFCCNEMDILEGNSRANALTPHSCTATACDSAGCGFNPYGSGYKSYYGPGDTVDTSKTFTIITQFNTDNGSPSGNLVSITRKYQQNGVDIPSAQPGGDTISSCPSASAYGGLATMGKALSSGMVLVFSIWNDNSQYMNWLDSGNAGPCSSTEGNPSNILANNPNTHVVFSNIRWGDIGSTTNSTAPPPPPASSTTFSTTRRSSTTSSSPSCTQTHWGQCGGIGYSGCKTCTSGTTCQYSNDYYSQCL
